Data taken from JP2016028048A (dated 2016).

T1: ヒト組織因子経路インヒビター (human TFPI) (human, UniProt P10646 29-304, limits assumed)
T1 construct: Coated on Maxisorp plates (ELISA) or amine-coupled to a CM5 chip (Biacore); also called ヒトTFPI; hTFPI
T1 sequence (looked up): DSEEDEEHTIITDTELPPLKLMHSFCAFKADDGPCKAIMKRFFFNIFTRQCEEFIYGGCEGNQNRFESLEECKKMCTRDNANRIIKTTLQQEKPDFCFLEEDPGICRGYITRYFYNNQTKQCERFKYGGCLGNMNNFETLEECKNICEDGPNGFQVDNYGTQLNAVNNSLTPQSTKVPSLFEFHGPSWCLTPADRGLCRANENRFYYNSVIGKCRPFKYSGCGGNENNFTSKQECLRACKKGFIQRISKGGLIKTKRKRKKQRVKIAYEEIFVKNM

T2: マウスTFPI (mouse TFPI) (mouse, UniProt O54819 29-289, limits assumed)
T2 construct: Coated on plates (ELISA) or amine-coupled to a CM5 chip (Biacore); also called mTFPI; m-TFPI
T2 sequence (looked up): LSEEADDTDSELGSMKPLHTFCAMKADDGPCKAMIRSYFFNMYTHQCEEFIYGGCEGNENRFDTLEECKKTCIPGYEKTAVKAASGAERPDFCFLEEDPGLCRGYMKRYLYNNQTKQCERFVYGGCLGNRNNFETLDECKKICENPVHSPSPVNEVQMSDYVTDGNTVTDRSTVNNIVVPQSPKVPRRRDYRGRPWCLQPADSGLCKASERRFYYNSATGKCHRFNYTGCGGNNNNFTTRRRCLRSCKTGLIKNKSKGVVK


Tests used:
[1] = target: T1, ヒト組織因子経路インヒビター (human TFPI); assay: ELISA on human TFPI-coated plate
マウスTFPI (mouse TFPI) [2] = target: T2, マウスTFPI (mouse TFPI); assay: ELISA on mouse TFPI-coated plate
[3] = target: T1, ヒト組織因子経路インヒビター (human TFPI); assay: ELISA on human TFPI-coated plate; IgG against the Fab
マウスTFPI (mouse TFPI) [4] = target: T2, マウスTFPI (mouse TFPI); assay: ELISA on mouse TFPI-coated plate; IgG against the Fab

| EC50 [1] | EC50 (マウスTFPI (mouse TFPI) [2]) | fold change of EC50 against 2G6-Fab [3] | fold change of EC50 against 2G6-Fab (マウスTFPI (mouse TFPI) [4]) | Binder |
| --- | --- | --- | --- | --- |
| 0.48 nM | 5.18 nM |  |  | TP-2G6 (Fab, V domains shown, Human Fab (HuCal Gold), made in E. coli TG1; also called 2G6-Fab) VH: QVQLQQSGPGLVKPSQTLSLTCAISGDSVSSSSAAWSWIRQSPGRGLEWLGIIYYRSKWYNDYAVSVKSRITINPDTSKNQFSLQLNSVTPEDTAVYYCARHSMVGFDVWGQGTLVTVSS VL: DIVLTQSPATLSLSPGERATLSCRASQYVTSSYLAWYQQKPGQAPRLLIYGSSRATGVPARFSGSGSGTDFTLTISSLEPEDFATYYCQQYSSSPITFGQGTKVEIKR |
| 0.22 nM | 0.51 nM | 2 倍 | 10 倍 | 2G6-IgG (antibody, V domains shown, also called IgG-2G6; TP-2G6 after conversion to IgG) VH: QVQLQQSGPGLVKPSQTLSLTCAISGDSVSSSSAAWSWIRQSPGRGLEWLGIIYYRSKWYNDYAVSVKSRITINPDTSKNQFSLQLNSVTPEDTAVYYCARHSMVGFDVWGQGTLVTVSS VL: DIVLTQSPATLSLSPGERATLSCRASQYVTSSYLAWYQQKPGQAPRLLIYGSSRATGVPARFSGSGSGTDFTLTISSLEPEDFATYYCQQYSSSPITFGQGTKVEIKR |
